Measured values reported in publication PMC5593919, “Functional characterization of Vip3Ab1 and Vip3Bc1: Two novel insecticidal proteins with differential activity against lepidopteran pests” (Scientific Reports, 2017).

Columns and labels:
[1] = target: Vip3Ab1 (Bacillus thuringiensis); test: SEC; analytical SEC, TSKgel SuperSW3000, 50 mM sodium phosphate pH 7.0 with 250 mM NaCl, 75 µl/min, 3 µl at 150 µg/ml, fluorescence detection; size from retention time against molecular weight standards; proteins not digested
[2] = target: Vip3_AB chimera (N-terminal domain of Vip3Ab1 and C-terminal domain of Vip3Bc1) (Bacillus thuringiensis); test: as above
[3] = target: Vip3Ab1 after overnight processing with H. zea midgut enzymes (~20 kDa and ~65 kDa products together) (Bacillus thuringiensis); test: SEC; purified Vip3 protein digested overnight with H. zea gut fluid (50 mM MOPS pH 10, 30 °C), stopped with protease inhibitors, then analytical SEC on TSKgel SuperSW3000 in 50 mM sodium phosphate pH 7.0 with 250 mM NaCl; size from retention time
[4] = target: C-terminal ~65 kDa domain of Vip3Ab1, expressed from Leu222 (Bacillus thuringiensis); test: SEC; analytical SEC, TSKgel SuperSW3000, 50 mM sodium phosphate pH 7.0 with 250 mM NaCl, 75 µl/min, 3 µl at 150 µg/ml, fluorescence detection; size from retention time against molecular weight standards; proteins not digested
[5] = target: Vip3_BA chimera (N-terminal domain of Vip3Bc1 and C-terminal domain of Vip3Ab1) (Bacillus thuringiensis); test: as above
[6] = target: T1, ~65 kDa C-terminal product of Vip3Bc1 after gut enzyme processing (Bacillus thuringiensis, UniProt A0A290WPI2 214-803); test: SEC; purified Vip3 protein digested overnight with H. zea gut fluid (50 mM MOPS pH 10, 30 °C), stopped with protease inhibitors, then analytical SEC on TSKgel SuperSW3000 in 50 mM sodium phosphate pH 7.0 with 250 mM NaCl; size from retention time; settings: both partners purified
T1 construct: Vip3Bc1, GenBank MF543028, product from the cleavage 210NVTK/EVIE (processed at 214Glu); source: Vip3Bc1 from Pseudomonas fluorescens, purified, then digested overnight with H. zea gut enzymes
T1 sequence: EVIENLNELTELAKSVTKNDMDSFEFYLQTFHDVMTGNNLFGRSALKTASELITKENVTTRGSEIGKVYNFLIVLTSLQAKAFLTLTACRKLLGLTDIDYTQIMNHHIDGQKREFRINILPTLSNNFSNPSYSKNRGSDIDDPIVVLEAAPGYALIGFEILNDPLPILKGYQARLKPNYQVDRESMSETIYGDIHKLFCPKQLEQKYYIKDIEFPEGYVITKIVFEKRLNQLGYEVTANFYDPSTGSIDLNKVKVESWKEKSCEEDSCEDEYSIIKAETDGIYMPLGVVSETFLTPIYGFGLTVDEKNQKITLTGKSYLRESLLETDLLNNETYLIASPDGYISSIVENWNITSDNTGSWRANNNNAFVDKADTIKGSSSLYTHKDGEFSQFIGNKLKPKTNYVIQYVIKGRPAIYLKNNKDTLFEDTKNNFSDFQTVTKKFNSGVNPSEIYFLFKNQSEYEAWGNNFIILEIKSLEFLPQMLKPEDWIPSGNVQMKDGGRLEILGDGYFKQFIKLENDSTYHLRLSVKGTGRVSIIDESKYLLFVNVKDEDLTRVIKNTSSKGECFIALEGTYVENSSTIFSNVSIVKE

[7] = target: the molecule itself; test: as above
[8] = target: the molecule itself; test: SEC; analytical SEC, TSKgel SuperSW3000, 50 mM sodium phosphate pH 7.0 with 250 mM NaCl, 75 µl/min, 3 µl at 150 µg/ml, fluorescence detection; size from retention time against molecular weight standards; proteins not digested

Vip3Ab1 (natural protein) gave a stoichiometry N [1] of 4.

For “Vip3_AB chimera (N-terminal domain of Vip3Ab1 and C-terminal domain of Vip3Bc1) (from UniProt A0A290WPI2 224-803)”, the stoichiometry N [2] was 4.

“Vip3Ab1 after overnight processing with H. zea midgut enzymes (~20 kDa and ~65 kDa products together) (complex)” was tested, and the stoichiometry N [3] was 4.

For “C-terminal ~65 kDa domain of Vip3Ab1, expressed from Leu222 (domain or fragment)”, the stoichiometry N [4] was 2.

For “Vip3_BA chimera (N-terminal domain of Vip3Bc1 and C-terminal domain of Vip3Ab1) (from UniProt A0A290WPI2 2-223)”, the percent tetrameric [5] was 50% and the stoichiometry N [5] was 4.

B1: ~20 kDa N-terminal product of Vip3Bc1 after gut enzyme processing (domain or fragment)
chain: ALPSFIDYFNGIYGFATGIKDIMGMIFKTDTGGSNLTLDEILKNQNLLNDISGKLDGINGDLGDLIAQGNLNSELAKELLKISNEQNQMLNHVNAQLNAINSTLNIYLPKITSMLNEVMKQNHVLSLQIEFLSKQLQEISDKLDIINLNVLINSTLTEITPAYQRIKYVNEKFDELTSTVEKNPKSYQDNVTK
notes: Vip3Bc1, GenBank MF543028, product between the cleavage at 21Ala and the cleavage 210NVTK/EVIE (processed at 214Glu); source: Vip3Bc1 from Pseudomonas fluorescens, purified, then digested overnight with H. zea gut enzymes
B1: binds [6].

B2: Vip3Bc1 after overnight processing with H. zea midgut enzymes (~20 kDa and ~65 kDa products together) (complex)
chain 1: ALPSFIDYFNGIYGFATGIKDIMGMIFKTDTGGSNLTLDEILKNQNLLNDISGKLDGINGDLGDLIAQGNLNSELAKELLKISNEQNQMLNHVNAQLNAINSTLNIYLPKITSMLNEVMKQNHVLSLQIEFLSKQLQEISDKLDIINLNVLINSTLTEITPAYQRIKYVNEKFDELTSTVEKNPKSYQDNVTK
chain 2: EVIENLNELTELAKSVTKNDMDSFEFYLQTFHDVMTGNNLFGRSALKTASELITKENVTTRGSEIGKVYNFLIVLTSLQAKAFLTLTACRKLLGLTDIDYTQIMNHHIDGQKREFRINILPTLSNNFSNPSYSKNRGSDIDDPIVVLEAAPGYALIGFEILNDPLPILKGYQARLKPNYQVDRESMSETIYGDIHKLFCPKQLEQKYYIKDIEFPEGYVITKIVFEKRLNQLGYEVTANFYDPSTGSIDLNKVKVESWKEKSCEEDSCEDEYSIIKAETDGIYMPLGVVSETFLTPIYGFGLTVDEKNQKITLTGKSYLRESLLETDLLNNETYLIASPDGYISSIVENWNITSDNTGSWRANNNNAFVDKADTIKGSSSLYTHKDGEFSQFIGNKLKPKTNYVIQYVIKGRPAIYLKNNKDTLFEDTKNNFSDFQTVTKKFNSGVNPSEIYFLFKNQSEYEAWGNNFIILEIKSLEFLPQMLKPEDWIPSGNVQMKDGGRLEILGDGYFKQFIKLENDSTYHLRLSVKGTGRVSIIDESKYLLFVNVKDEDLTRVIKNTSSKGECFIALEGTYVENSSTIFSNVSIVKE
notes: Vip3Bc1 ~20 kDa product, as m9; Vip3Bc1 ~65 kDa product, as m10; Vip3Bc1 was processed much more slowly than Vip3Ab1; also called processed Vip3Bc1; source: Vip3Bc1 from Pseudomonas fluorescens, purified, then digested overnight with H. zea gut enzymes; copies: 4 + 4
In the case of B2, the “stoichiometry N” value [7] is reported as 4.

B3: Vip3Bc1 (natural protein)
chain: VQKWMQRMIIVDNNKLNVRALPSFIDYFNGIYGFATGIKDIMGMIFKTDTGGSNLTLDEILKNQNLLNDISGKLDGINGDLGDLIAQGNLNSELAKELLKISNEQNQMLNHVNAQLNAINSTLNIYLPKITSMLNEVMKQNHVLSLQIEFLSKQLQEISDKLDIINLNVLINSTLTEITPAYQRIKYVNEKFDELTSTVEKNPKSYQDNVTKEVIENLNELTELAKSVTKNDMDSFEFYLQTFHDVMTGNNLFGRSALKTASELITKENVTTRGSEIGKVYNFLIVLTSLQAKAFLTLTACRKLLGLTDIDYTQIMNHHIDGQKREFRINILPTLSNNFSNPSYSKNRGSDIDDPIVVLEAAPGYALIGFEILNDPLPILKGYQARLKPNYQVDRESMSETIYGDIHKLFCPKQLEQKYYIKDIEFPEGYVITKIVFEKRLNQLGYEVTANFYDPSTGSIDLNKVKVESWKEKSCEEDSCEDEYSIIKAETDGIYMPLGVVSETFLTPIYGFGLTVDEKNQKITLTGKSYLRESLLETDLLNNETYLIASPDGYISSIVENWNITSDNTGSWRANNNNAFVDKADTIKGSSSLYTHKDGEFSQFIGNKLKPKTNYVIQYVIKGRPAIYLKNNKDTLFEDTKNNFSDFQTVTKKFNSGVNPSEIYFLFKNQSEYEAWGNNFIILEIKSLEFLPQMLKPEDWIPSGNVQMKDGGRLEILGDGYFKQFIKLENDSTYHLRLSVKGTGRVSIIDESKYLLFVNVKDEDLTRVIKNTSSKGECFIALEGTYVENSSTIFSNVSIVKE
notes: Vip3Bc1, vegetative insecticidal protein of Bacillus thuringiensis, GenBank MF543028; expressed with only the first methionine removed (N-terminus VQKWM at 2); Gene was synthesized, codon biased for maize; source: Pseudomonas fluorescens, purified (ammonium sulfate precipitation, anion exchange)
For B3, the “stoichiometry N” value [8] was 4.

B4: C-terminal ~65 kDa domain of Vip3Bc1, expressed from Leu222 (domain or fragment)
chain: LTELAKSVTKNDMDSFEFYLQTFHDVMTGNNLFGRSALKTASELITKENVTTRGSEIGKVYNFLIVLTSLQAKAFLTLTACRKLLGLTDIDYTQIMNHHIDGQKREFRINILPTLSNNFSNPSYSKNRGSDIDDPIVVLEAAPGYALIGFEILNDPLPILKGYQARLKPNYQVDRESMSETIYGDIHKLFCPKQLEQKYYIKDIEFPEGYVITKIVFEKRLNQLGYEVTANFYDPSTGSIDLNKVKVESWKEKSCEEDSCEDEYSIIKAETDGIYMPLGVVSETFLTPIYGFGLTVDEKNQKITLTGKSYLRESLLETDLLNNETYLIASPDGYISSIVENWNITSDNTGSWRANNNNAFVDKADTIKGSSSLYTHKDGEFSQFIGNKLKPKTNYVIQYVIKGRPAIYLKNNKDTLFEDTKNNFSDFQTVTKKFNSGVNPSEIYFLFKNQSEYEAWGNNFIILEIKSLEFLPQMLKPEDWIPSGNVQMKDGGRLEILGDGYFKQFIKLENDSTYHLRLSVKGTGRVSIIDESKYLLFVNVKDEDLTRVIKNTSSKGECFIALEGTYVENSSTIFSNVSIVKE
notes: Vip3Bc1, GenBank MF543028, beginning at Leu222; also called C-terminus of Vip3Bc1; C-terminal region of Vip3Bc1; source: Pseudomonas fluorescens, purified
With B4 the “stoichiometry N” value [8] was 2.
